First the molecules themselves.
B1: Clathrin heavy chain fused to mScarlet (Chc-mScarlet), wild type [Saccharomyces cerevisiae] / Ent2 endogenously tagged with mNeonGreen (Ent2-mNeonGreen) [Saccharomyces cerevisiae (endogenous in MK100)] (parent complex)
chain 1: MSDLPIEFTELVDLMSLGISPQFLDFRSTTFESDHFVTVRETKDGTNSVAIVDLAKGNEVTRKNMGGDSAIMHPSQMVISVRANGTIVQIFNLETKSKLKSFTLDEPVIFWRWLSETTLGFVTARSILTSNVFDGNVNAKPQLLTLRHANLNNTQIINFVANKNLDWFAVVGILQENGRIAGRIQLFSKQRNISQAIDGHVAIFTNILLEGNGSTPVQVFVTGNRNATTGAGELRIIEIDHDASLPSQYQKETTDIFFPPDATNDFPIAVQVSEKYGIIYLLTKYGFIHLYELETGTNLFVNRITAESVFTAAPYNHENGIACINKKGQVLAVEISTSQIVPYILNKLSNVALALIVATRGGLPGADDLFQKQFESLLLQNDYQNAAKVAASSTSLRNQNTINRLKNIQAPPGAISPILLYFSTLLDKGKLNKEETIELARPVLQQDRKQLFEKWLKEDKLECSEELGDIVKPFDTTLALACYLRAGAHAKVISCLAELQQFEKIIPYCQKVGYQPNFLVLISSLIRSSPDRASEFAVSLLQNPETASQIDIEKIADLFFSQNHIQQGTSLLLDALKGDTPDQGHLQTRVLEVNLLHAPQVADAILGNNIFSHYDKPTIASLSEKAGLYQRALENYTDIKDIKRCVVHTNALPIDWLVGYFGKLNVEQSLACLKALMDNNIQANIQTVVQVATKFSDLIGPSTLIKLFEDYNATEGLYYYLASLVNLTEDKDVVYKYIEAAAKMKQYREIERIVKDNNVYDPERVKNFLKDANLEDQLPLVIVCDRFDFVHEMILYLYKSQNLKFIETYVQQVNPSKTAQVVGALLDMDCDEAFIQSLLQSVLGQVPINELTTEVEKRNRLKILLPFLEQSLSQGIQDQAVYNALAKIYIDSNNSPEKFLKENDQYDTLDVGHYCEKRDPYLAYIAYEKGQNDDDLIRITNENSMYKYQARYLLERSDLDLWNKVLNQENIHRRQLIDSVISVGIPELTDPEPVSLTVQAFMTNGLKLELIELLEKIILEPSPFNENVALQGLLLLSAIKYEPTKVSSYIEKLDNYDADEIAPLCIEHDLKEEAFEIYDKHEMYGKALKVLIEDIMSLDRAASYADKINTPELWSQIGTAQLDGLRIPDAIESYIKAEDPSNYENVIDIAEQAGKYEELIPFLLMARKTLKEPKIDGALILAYAELNKIHEIENLLAGSNVANLDHVGDKLFENKEYKAARLCYSAVSNYSKLASTLVYLGDYQAAVDTARKASNIKVWKLVNDACIEKKEFKLAQICGLNLIVHAEELDELVERYESNGYFEELISLFEAGLGLERAHMGMFTELAILYSKYEPDKTFEHLKLFWSRINIPKVIRAVEQAHLWSELVFLYAHYDEWDNAALTLIEKSTKDLDHAYFKEVVVKVSNLEIYYKAINFYVKFHPSLLVDLLTSLTPRLDIPRTVKIFSKSDNLPLIKPFLINVLPKNNSVVNQAYHDLMIEEEDYKALQDAVDSYDKFDQLGLASRLESHKLIFFKKIGALLYRRNKKWAKSLSILKEEKLWKDAIETAAISQDPKVVEALLTYFVETGNREGFVALLYAAYNLVRIEFVLEISWMNSLEDYIKPFEISIKKEQNDSIKKITEELAKKSGSNEEHKDGQPLMLMNSAMNVQPTGF
chain 2: MSKQFVRSAKNMMKGYSSTQVLVRDATANDSRTPSIDTLDDLAQRSYDSVDFFEIMDMLDKRLNDKGKYWRHVAKSLTVLDYLVRFGSENCVLWCRENFYVIKTLREFRHENESGFDEGQIIRVKAKELVSLLNDEERLREERSMNTRNRRANRAARPRPRRQRTRSNPHDSSPSYQDDLEKALEESRITAQEDEQRRRELAQYDDEDPDFQAALQLSKEEEELKQLQELQRLQKQQQSLSQFQAPLQQQQPQQQPAYYDIFGNPISQDEYLQYQYQQDQEQAMAQQRWLDQQQEQQQLAEQQYFQQQQQAAAAASALQQQQTAANMQQQQQQPADFQQPLPTGSNNPFSMDNLERQKQEQQHAQLQRQQEEARQQQEQLKLQQLQRQQQEEAQLHQKRQEEAQLQQQQAQLLQQQAQFQQQQPLKQTRTGNQSISDKYSDLNTLLATGTGIDTFGNTGEARIPAQHTKTGTFINSQGTGYKQVTNEPKNNPFLSNQYTGLPSTNIVPTQTGYGFGNQPQSPPTNSPQQNPTGISYSQPQQQQQPQQQPQYMQNFQQQQPQYAQNFQQQPQYTQNYQQQPQYIQPHQQQQQQQQQQQQQQGYTPDQGVSLIDL
B2: Clathrin heavy chain fused to mScarlet (Chc-mScarlet), wild type [Saccharomyces cerevisiae] / Ent1 endogenously tagged with mNeonGreen (Ent1-mNeonGreen) [Saccharomyces cerevisiae (endogenous in MK100)] (parent complex)
chain 1: B1 chain 1
chain 2: MSKQFVRSAKNLVKGYSSTQVLVRNATSNDNHQVSKDSLIELAEKSYDSADFFEIMDMLDKRLNDKGKYWRHIAKALTVIDYLIRFGSENCVLWCRENLYIIKTLKEFRHEDDEGIDQGQIVRVKAKELTALLSDDERLNEERNMNIKGRNRKGRRRRGTGRSDENDDDLQRAISASRLTAEEDERRRKQDEDYETALQLSKEEEELKRLQDLQRMQQQQGQQQLQQPMYYDIFGNPITPEEYAQFQLQQQQQQQQQQLQQQPMYYDVFGNPITPEELAQFQQQQQLQEQQYLASMQQQQQAMSNNPFAKSEQSSSSPKRNQLVAASSPQQLQQQKQQEPLIQNRTGNQSMTDKYSKLNELLATGTGIDTFGNVGEARIPAQHTKTGTFINSQGTGYRQVSDDPNHNPFLNSQYTGLPSTSVVPTQTGYGFGNQSQQQSQNNGSNNRGYTLIDL

Variants of B1 are the subject of the first assay. Description: FRET acceptor photobleaching (in vivo); room temperature (21 °C); trimmed mean; n = 117; parent: 9.02.
chain 1 F26A, chain 1 K63E, chain 1 I87D, chain 1 Q89A, chain 1 K98E, chain 1 Q155A: the response is 7.18%.

In the next assay the parent is B1. Description: FRET acceptor photobleaching (in vivo); room temperature (21 °C); trimmed mean; n = 98; parent: 9.02.
Regarding chain 1 K63E, chain 1 I87D, chain 1 Q89A, chain 1 K98E, the response turned out to be 9.99%.

Variants of B1 are the subject of the next assay. Description: FRET acceptor photobleaching (in vivo); room temperature (21 °C); trimmed mean; n = 126; parent: 9.02.
On to chain 1 F26A, chain 1 Q155A, for which the response turned out to be 10.1%.

Variants of B1 are the subject of the next assay. Description: FRET acceptor photobleaching (in vivo); room temperature (21 °C); trimmed mean; n = 127; parent: 9.02.
On to chain 1 F26A, chain 1 K63E, chain 1 I87D, chain 1 Q89A, chain 1 K98E, chain 1 Q155A, chain 1 Q195A, chain 1 I197T, chain 1 K251E, for which the response is 7.03%.

Variants of B2 are the subject of another assay. Nature of the assay: FRET acceptor photobleaching (in vivo); room temperature (21 °C); trimmed mean; n = 103; parent: 7.87.
Regarding chain 1 F26A, chain 1 Q155A, chain 1 Q195A, chain 1 I197T, chain 1 K251E, the response worked out at 8.19%.

Variants of B2 are the subject of the next assay. Nature of the assay: FRET acceptor photobleaching (in vivo); room temperature (21 °C); trimmed mean; n = 98; parent: 7.87.
Turning to chain 1 F26A, chain 1 Q155A, the response is 8.23%.

The variants in the next assay derive from B2. Description: FRET acceptor photobleaching (in vivo); room temperature (21 °C); trimmed mean; n = 102; parent: 7.87.
chain 1 Q195A, chain 1 I197T, chain 1 K251E: the response was 8.6%.

Values taken from article PMC11543927, “Subtleties in Clathrin heavy chain binding boxes provide selectivity among adaptor proteins of budding yeast” (Nature Communications, 2024).
